Results on two molecules are retold here after patent CN116813769A (FUZHOU CREMAB PHARMACEUTICAL INC, dated 2023).

Experiment [1] concerns the target T1, 经生物素标记的CD47-hFc蛋白 (biotin-labelled CD47-hFc protein, expressed in house) (UniProt Q08722 19-141, biotin-labelled (site not stated)).
T1 construct: Self-expressed; Captured on SA sensor
The experiment can be described thus: BLI (Octet K2), SA sensor loaded with biotinylated CD47-hFc, antibody in solution, 1:1 fit.

In experiment [2] the target is T2, 人CD47胞外段-His tag重组蛋白 (SinoBiological 12283-H08H) (human, UniProt Q08722 19-139).
T2 construct: extracellular domain; Bought reagent; Captured on HIS1K sensor; also called CD47-his tag蛋白
Briefly: BLI (Octet K2), HIS1K sensor loaded with CD47-his tag, antibody in solution, 1:1 fit.

T1 sequence (Q08722 19-141): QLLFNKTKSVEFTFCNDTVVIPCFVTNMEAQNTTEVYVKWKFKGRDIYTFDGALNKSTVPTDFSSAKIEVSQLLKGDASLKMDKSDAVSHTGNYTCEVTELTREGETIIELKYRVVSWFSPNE
T2 sequence (Q08722 19-139 limits assumed): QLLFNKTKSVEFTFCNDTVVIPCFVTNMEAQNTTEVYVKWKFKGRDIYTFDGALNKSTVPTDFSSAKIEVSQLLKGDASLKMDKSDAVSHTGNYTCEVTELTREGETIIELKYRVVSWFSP

B1: 7DC2 (antibody, human IgG1, kappa, V domains shown)
VH: QVQLQQSGPELVKPGASVKMSCKASGYTFTNYFMHWVKQKPGQGLEWIGYINPYNDGTKYNEKFKGKATLTSDKSSSTAYMELSSLTSEDSAVYYCTKGGRYSMDYWGQGTTLTVSS
VL: DVVMTQTPLSLPVRLGDEVSISCRSSQTIVFTNGNTYLEWYLQKPGQSPKLLIYKVSNRFSGVPDRFSGSGSGTDFTLTISRVEAEDLGIYYCFQGSHVPYTFGGGTKLELKR
notes: Full-length chimeric antibody (mouse variable regions, human constant regions); also called 7DC2抗体
As for B1, the dissociation constant Kd in experiment [1] turned out to be 0.192 nM; in experiment [2] it was 0.221 nM.

B2: 7DC4 (antibody, human IgG1, kappa, V domains shown)
VH: QVQLKQSGAELVQPGASVKLSCKASGYTFTNYYMYWLRQRPGQGLEWIGEINPSNGGTDFNEKFKSKATLTVDKSSSTAFMQLSSLTSDDSAVYYCARGGFTMDYWGQGTTVTVSS
VL: DVVMTQTPLSLPVSLGDQASISCRSSQSLVHSNGNTYLHWYLQKPGQSPKLLIYKVSNRFSGVPDRFSGSGSGTDFTLKISRVEAEDLGVYFCSQSTHVPLTFGAGTKLELKR
notes: Full-length chimeric antibody (mouse variable regions, human constant regions); also called 7DC4抗体
Take B2: the equilibrium dissociation constant (Kd) in experiment [1] came out at 0.0276 nM; in experiment [2], 0.0202 nM.
